Source: patent US20200056171A1

Target: sodium taurocholate cotransporting polypeptide (NTCP) (UniProt Q14973)
Experiment: cell-based or functional assay

Sequence of UniProt Q14973 (Q14973 whole entry): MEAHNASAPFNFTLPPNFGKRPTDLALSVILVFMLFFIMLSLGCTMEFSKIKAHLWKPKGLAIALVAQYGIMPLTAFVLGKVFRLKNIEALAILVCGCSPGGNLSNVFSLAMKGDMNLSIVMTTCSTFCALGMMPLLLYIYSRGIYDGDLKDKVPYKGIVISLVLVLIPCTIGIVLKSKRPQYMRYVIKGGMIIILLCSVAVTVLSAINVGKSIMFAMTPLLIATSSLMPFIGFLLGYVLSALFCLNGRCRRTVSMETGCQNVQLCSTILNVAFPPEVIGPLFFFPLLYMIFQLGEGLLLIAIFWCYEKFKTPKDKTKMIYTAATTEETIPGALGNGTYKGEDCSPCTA

For Myrcludex B (peptide), the DsRed-positive CreC/CIR cells by FACS, day 7 after rHBV-CreN infection (MOI=250) with MyrB was under 1% and the DsRed-positive CreC/CIR cells by flow cytometry, day 10 after rHBV-CreN infection (MOI=300) with MyrB was under 1%.
